# Test results as given in article PMC2720063 (Biochemistry, 2009).
# B1: PFA1 Fab (Fab fragment of the monoclonal anti-Aβ antibody PFA1, Protofibril antibody 1) (Fab, V domains shown)
# VH: QVTLKESGPGILKPSQTLSLTCSFSGFSLSTSGMGVGWIRQPSGKGLEWLAHIWWDDDRSYNPSLKSQLTISKDAARNQVFLRITSVDTADTATYYCVRRAHTTVLGDWFAYWGQGTLVTVSA
# VL: DVLMTQTPLSLPVSLGDQASISCRSSQSIVHSNGNTYLEWYLQKPGQSPKLLIYKVSNRFSGVPDRFSGSGSGTDFTLKISRVEAEDLGVYYCFQGSHVPLTFGAGTKLELK
# Target: T1, Ror2(518–525) peptide (human)
# T1 chain: REEFRHEA
# Experiment: crystal structure
binder,measurement,value
B1,binding result,binds
